US20030045681A1 (published 2003)
One block for each molecule: values may come before it.

Key:
[1] = biological target: hen egg lysozyme (hen) (UniProt P00698); assay: radiolabeled scFv loaded onto an antigen column, flow-through and eluate counted
[2] = biological target: an irrelevant antigen (antigen of HyHEL-10, not given); assay: affinity chromatography of the conjugate on an antigen column
[3] = biological target: T1, recombinant ED-B domain of fibronectin (UniProt P02751 1266-1356, biotinylated (biotin disulfide N-hydroxysuccinimide ester) in ELISA and the ECL competition; Cy5 at the N-terminal extremity in the band-shift assay); assay: SPR (BIAcore), purified scFv on ED-B
T1 construct: domain: ED-B; also called biotinylated ED-B; ED-B-biotin
Protocol: (§1) Meth., 206, 171-182) and affinity purified onto a CNBr-activated sepharose column (Pharmacia, Uppsala, Sweden), which had been coupled with 10 mg of ED-B containing 7B89 recombinant protein (Carnemolla et al. (1996). Int. J. Cancer, 68, 397-405). After loading, the column was washed with 50 ml of equilibration buffer (PBS, 1 mM EDTA, 0.5 M NaCl). Antibody fragments were then eluted with triethylamine 100 mM, immediately neutralised with 1M Hepes, pH 7, and dialysed against PBS. Affinity measurements by BIAcore were performed with purified antibodies as described (Neri et al. (1997). Nature Biotechnol., 15 1271-1275) [FIG. 4]. Band-shift analysis was performed as described (Neri et al. (1996). Nature Biotechnology, 14, 385-390), using recombinant ED-B fluorescently labeled at the N-terminal extremity (Carnemolla et al. (1996). Int. J. Cancer, 68, 397-405, Neri et al. (1997). Nature Biotechnol., 15 1271-1275) with the infrared fluorophore Cy5 (Amersham) [FIG. 4]. […] We therefore performed measurements of the kinetic dissociation constant koff by competition experiments (Neri et al. (1996), Trends in Biotechnol., 14, 465-470) [FIG. 4]. […] Streptavidin-coated dynabeads, diluted in Origen Assay Buffer (Deaver, D. R. (1995). Nature, 377, 758-760) were then added (20 μl, 1 mg/ml), and the resulting mixtures analysed with a ORIGEN Analyzer (IGEN Inc. Gaithersburg, Md. USA). […]

[4] = biological target: T1, recombinant ED-B domain of fibronectin; assay: Kd = koff/kon, koff from ECL competition, kon from BIAcore
Protocol: as §1, with “Int.” for “Meth., 206, 171-182) and affinity purified onto a CNBr-activated sepharose column (Pharmacia, Uppsala, Sweden), which had been coupled with 10 mg of ED-B containing 7B89 recombinant protein (Carnemolla et al. (1996). Int.”

[5] = biological target: T1, recombinant ED-B domain of fibronectin; assay: SPR (BIAcore); the footnote calls this value not sufficiently reliable
Protocol: as §1

[6] = biological target: T1, recombinant ED-B domain of fibronectin; assay: competition of the scFv-(biotinylated ED-B) complex with excess unbiotinylated ED-B, electrochemiluminescent detection (Origen)
Protocol: as §1, with “Int.” for “Meth., 206, 171-182) and affinity purified onto a CNBr-activated sepharose column (Pharmacia, Uppsala, Sweden), which had been coupled with 10 mg of ED-B containing 7B89 recombinant protein (Carnemolla et al. (1996). Int.”

T1 sequence (P02751 1266-1356 limits assumed): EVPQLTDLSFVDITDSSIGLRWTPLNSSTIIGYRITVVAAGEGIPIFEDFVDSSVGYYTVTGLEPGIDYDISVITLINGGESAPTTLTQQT
hen egg lysozyme (hen), sequence (P00698 19-147): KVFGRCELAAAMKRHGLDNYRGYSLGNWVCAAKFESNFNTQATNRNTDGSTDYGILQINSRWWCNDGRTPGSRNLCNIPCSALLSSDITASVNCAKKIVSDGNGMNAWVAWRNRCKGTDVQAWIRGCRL

- immunoreactivity [1]: > 80%
Molecule: radioiodinated scFv(D1.3)

- immunoreactivity [2]: > 78%
Molecule: scFv(HyHEL-10)-Cy5

- kon [3]: 110000 M⁻¹ s⁻¹
- Kd [4]: 54 pM
- koff [5]: 9.6e-05 s⁻¹
- koff [6]: 6e-06 s⁻¹
B1: scFv(L19) (scFv)
scFv: EVQLLESGGGLVQPGGSLRLSCAASGFTFSSFSMSWVRQAPGKGLEWVSSISGSSGTTYYADSVKGRFTISRDNSKNTLYLQMNSLRAEDTAVYYCAKPFPYFDYWGQGTLVTVSSGDGSSGGSGGASTGEIVLTQSPGTLSLSPGERATLSCRASQSVSSSYLAWYQQKPGQAPRLLIYYASSRATGIPDRFSGSGSGTDFTLTISRLEPEDFAVYYCQQTGRIPPTFGQGTKVEIKDDDSDDDYKDDDDKHHHHHH
notes: also called antibody L19; anti-ED-B L19
